Key:
[1] = target: T1, recombinant CHO TEM-1 Fc fusion protein (UniProt Q9HCU0); assay: ECL sandwich, competition: biotin-9G5 capture, sulfo-TAG-15F8 detection; MORAb-004 spike 0.78125 µg/mL, TEM-1-Fc QC 0.4 ng/mL; recovery at 0 µg/mL MORAb-004: 109
T1 sequence (looked up): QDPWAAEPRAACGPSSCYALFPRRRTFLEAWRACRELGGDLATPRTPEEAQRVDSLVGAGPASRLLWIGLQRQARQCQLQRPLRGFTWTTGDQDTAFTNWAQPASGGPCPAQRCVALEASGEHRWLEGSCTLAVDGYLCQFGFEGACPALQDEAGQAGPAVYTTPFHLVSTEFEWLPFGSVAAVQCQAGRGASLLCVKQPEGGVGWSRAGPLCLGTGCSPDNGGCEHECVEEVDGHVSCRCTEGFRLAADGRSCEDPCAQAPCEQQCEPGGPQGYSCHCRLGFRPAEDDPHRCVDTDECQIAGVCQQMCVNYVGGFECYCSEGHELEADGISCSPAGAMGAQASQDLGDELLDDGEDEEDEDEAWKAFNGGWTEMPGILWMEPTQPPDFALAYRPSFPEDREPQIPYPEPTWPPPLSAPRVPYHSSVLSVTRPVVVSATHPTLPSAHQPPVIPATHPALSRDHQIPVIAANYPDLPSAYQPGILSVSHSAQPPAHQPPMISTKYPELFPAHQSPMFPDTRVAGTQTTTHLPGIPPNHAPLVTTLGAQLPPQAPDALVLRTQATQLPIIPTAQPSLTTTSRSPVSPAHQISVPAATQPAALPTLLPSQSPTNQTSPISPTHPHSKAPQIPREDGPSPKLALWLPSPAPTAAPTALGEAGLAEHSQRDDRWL

[2] = target: T1, recombinant CHO TEM-1 Fc fusion protein; assay: ECL sandwich, competition: biotin-9G5 capture, sulfo-TAG-15F8 detection; MORAb-004 spike 12.5 µg/mL, TEM-1-Fc QC 2 ng/mL; recovery at 0 µg/mL MORAb-004: 106
[3] = target: T1, recombinant CHO TEM-1 Fc fusion protein; assay: ECL sandwich, competition: biotin-9G5 capture, sulfo-TAG-15F8 detection; MORAb-004 spike 3.125 µg/mL, TEM-1-Fc QC 0.4 ng/mL; recovery at 0 µg/mL MORAb-004: 109
[4] = target: T1, recombinant CHO TEM-1 Fc fusion protein; assay: ECL sandwich, competition: biotin-9G5 capture, sulfo-TAG-15F8 detection; MORAb-004 spike 50 µg/mL, TEM-1-Fc QC 0.4 ng/mL; recovery at 0 µg/mL MORAb-004: 109
[5] = target: T1, recombinant CHO TEM-1 Fc fusion protein; assay: ECL sandwich, competition: biotin-9G5 capture, sulfo-TAG-15F8 detection; MORAb-004 spike 12.5 µg/mL, TEM-1-Fc QC 50 ng/mL; recovery at 0 µg/mL MORAb-004: 104
[6] = target: T1, recombinant CHO TEM-1 Fc fusion protein; assay: ECL sandwich, competition: biotin-9G5 capture, sulfo-TAG-15F8 detection; MORAb-004 spike 25 µg/mL, TEM-1-Fc QC 0.4 ng/mL; recovery at 0 µg/mL MORAb-004: 109
[7] = target: T1, recombinant CHO TEM-1 Fc fusion protein; assay: ECL sandwich, competition: biotin-9G5 capture, sulfo-TAG-15F8 detection; MORAb-004 spike 12.5 µg/mL, TEM-1-Fc QC 0.4 ng/mL; recovery at 0 µg/mL MORAb-004: 109
[8] = target: T1, recombinant CHO TEM-1 Fc fusion protein; assay: ECL sandwich, competition: biotin-9G5 capture, sulfo-TAG-15F8 detection; MORAb-004 spike 25 µg/mL, TEM-1-Fc QC 2 ng/mL; recovery at 0 µg/mL MORAb-004: 106
[9] = target: T1, recombinant CHO TEM-1 Fc fusion protein; assay: ECL sandwich, competition: biotin-9G5 capture, sulfo-TAG-15F8 detection; MORAb-004 spike 1.5625 µg/mL, TEM-1-Fc QC 0.08 ng/mL; recovery at 0 µg/mL MORAb-004: 114
[10] = target: T1, recombinant CHO TEM-1 Fc fusion protein; assay: ECL sandwich, competition: biotin-9G5 capture, sulfo-TAG-15F8 detection; MORAb-004 spike 0.78125 µg/mL, TEM-1-Fc QC 10 ng/mL; recovery at 0 µg/mL MORAb-004: 105
[11] = target: T1, recombinant CHO TEM-1 Fc fusion protein; assay: ECL sandwich, competition: biotin-9G5 capture, sulfo-TAG-15F8 detection; MORAb-004 spike 0.78125 µg/mL, TEM-1-Fc QC 2 ng/mL; recovery at 0 µg/mL MORAb-004: 106
[12] = target: T1, recombinant CHO TEM-1 Fc fusion protein; assay: ECL sandwich, competition: biotin-9G5 capture, sulfo-TAG-15F8 detection; MORAb-004 spike 25 µg/mL, TEM-1-Fc QC 50 ng/mL; recovery at 0 µg/mL MORAb-004: 104
[13] = target: T1, recombinant CHO TEM-1 Fc fusion protein; assay: ECL sandwich, competition: biotin-9G5 capture, sulfo-TAG-15F8 detection; MORAb-004 spike 0.78125 µg/mL, TEM-1-Fc QC 50 ng/mL; recovery at 0 µg/mL MORAb-004: 104
[14] = target: T1, recombinant CHO TEM-1 Fc fusion protein; assay: ECL sandwich, competition: biotin-9G5 capture, sulfo-TAG-15F8 detection; MORAb-004 spike 1.5625 µg/mL, TEM-1-Fc QC 50 ng/mL; recovery at 0 µg/mL MORAb-004: 104
[15] = target: T1, recombinant CHO TEM-1 Fc fusion protein; assay: ECL sandwich, competition: biotin-9G5 capture, sulfo-TAG-15F8 detection; MORAb-004 spike 6.25 µg/mL, TEM-1-Fc QC 2 ng/mL; recovery at 0 µg/mL MORAb-004: 106

B1: MORAb-004 (antibody, INN chains, looked up, V domains shown)
VH: QVQLQESGPGLVRPSQTLSLTCTASGYTFTDYVIHWVKQPPGRGLEWIGYINPYDDDTTYNQKFKGRVTMLVDTSSNTAYLRLSSVTAEDTAVYYCARRGNSYDGYFDYSMDYWGSGTPVTVSS
VL: DIQMTQSPSSLSASVGDRVTITCRASQNVGTAVAWLQQTPGKAPKLLIYSASNRYTGVPSRFSGSGSGTDYTFTISSLQPEDIATYYCQQYTNYPMYTFGQGTKVQIK
[1]
  % Recovery of TEM-1 QCs spiked with MORAb-004: 105%
[2]
  % Recovery of TEM-1 QCs spiked with MORAb-004: 92.8%
[3]
  % Recovery of TEM-1 QCs spiked with MORAb-004: 101%
[4]
  % Recovery of TEM-1 QCs spiked with MORAb-004: 91.9%
[5]
  % Recovery of TEM-1 QCs spiked with MORAb-004: 92.1%
[6]
  % Recovery of TEM-1 QCs spiked with MORAb-004: 96.5%
[7]
  % Recovery of TEM-1 QCs spiked with MORAb-004: 96.5%
[8]
  % Recovery of TEM-1 QCs spiked with MORAb-004: 89.1%
[9]
  % Recovery of TEM-1 QCs spiked with MORAb-004: 103%
[10]
  % Recovery of TEM-1 QCs spiked with MORAb-004: 100%
[11]
  % Recovery of TEM-1 QCs spiked with MORAb-004: 99.9%
[12]
  % Recovery of TEM-1 QCs spiked with MORAb-004: 92.8%
[13]
  % Recovery of TEM-1 QCs spiked with MORAb-004: 99.3%
[14]
  % Recovery of TEM-1 QCs spiked with MORAb-004: 98.9%
[15]
  % Recovery of TEM-1 QCs spiked with MORAb-004: 94.2%
